Our source for the stoichiometry N (CysK per CdiA-CT) values is PMC11724271.

The assay has as its target CdiA-CT^EC536_H178A (catalytically inactive C-terminal toxin domain of CdiA from uropathogenic E. coli 536) (uropathogenic Escherichia coli 536). Briefly: cryo-EM structure.

“And” between values parts separate entries of the source, which are not always exact repeats. Identical values can stand only once.

B1: O-acetylserine sulfhydrylase A (CysK) (enzyme)
chain: MSKIFEDNSLTIGHTPLVRLNRIGNGRILAKVESRNPSFSVKCRIGANMIWDAEKRGVLKPGVELVEPTSGNTGIALAYVAAARGYKLTLTMPETMSIERRKLLKALGANLVLTEGAKGMKGAIQKAEEIVASNPEKYLLLQQFSNPANPEIHEKTTGPEIWEDTDGQVDVFIAGVGTGGTLTGVSRYIKGTKGKTDLISVAVEPTDSPVIAQALAGEEIKPGPHKIQGIGAGFIPANLDLKLVDKVIGITNEEAISTARRLMEEEGILAGISSGAAVAAALKLQEDESFTNKNIVVILPSSGERYLSTALFADLFTEKELQQ
modifications: PLP (N'-pyridoxyl-lysine-5'-monophosphate); position not given
On to B1, for which the stoichiometry N (CysK per CdiA-CT) is 2 and 1.
